Experimental data reported in patent US20140161732A1.
Bridge positions count the residues as written; N and C are the ends. Side chains are listed from the residue outwards. * marks the point of attachment. Biotin = O=C1N[C@H]2[C@H](CS[C@H]2CCCCC(=O)*)N1; AEEA = NCCOCCOCC(=O)O

Experiments:
[1] = molecular target: T1, KDR expressed on transiently transfected 293H cells (human), P35968; test: competition with 125I-VEGF on KDR-transfected 293H cells (mock subtracted), peptide at 30 µM; details: remark: other sources report otherwise
T1 sequence (P35968 20-1356): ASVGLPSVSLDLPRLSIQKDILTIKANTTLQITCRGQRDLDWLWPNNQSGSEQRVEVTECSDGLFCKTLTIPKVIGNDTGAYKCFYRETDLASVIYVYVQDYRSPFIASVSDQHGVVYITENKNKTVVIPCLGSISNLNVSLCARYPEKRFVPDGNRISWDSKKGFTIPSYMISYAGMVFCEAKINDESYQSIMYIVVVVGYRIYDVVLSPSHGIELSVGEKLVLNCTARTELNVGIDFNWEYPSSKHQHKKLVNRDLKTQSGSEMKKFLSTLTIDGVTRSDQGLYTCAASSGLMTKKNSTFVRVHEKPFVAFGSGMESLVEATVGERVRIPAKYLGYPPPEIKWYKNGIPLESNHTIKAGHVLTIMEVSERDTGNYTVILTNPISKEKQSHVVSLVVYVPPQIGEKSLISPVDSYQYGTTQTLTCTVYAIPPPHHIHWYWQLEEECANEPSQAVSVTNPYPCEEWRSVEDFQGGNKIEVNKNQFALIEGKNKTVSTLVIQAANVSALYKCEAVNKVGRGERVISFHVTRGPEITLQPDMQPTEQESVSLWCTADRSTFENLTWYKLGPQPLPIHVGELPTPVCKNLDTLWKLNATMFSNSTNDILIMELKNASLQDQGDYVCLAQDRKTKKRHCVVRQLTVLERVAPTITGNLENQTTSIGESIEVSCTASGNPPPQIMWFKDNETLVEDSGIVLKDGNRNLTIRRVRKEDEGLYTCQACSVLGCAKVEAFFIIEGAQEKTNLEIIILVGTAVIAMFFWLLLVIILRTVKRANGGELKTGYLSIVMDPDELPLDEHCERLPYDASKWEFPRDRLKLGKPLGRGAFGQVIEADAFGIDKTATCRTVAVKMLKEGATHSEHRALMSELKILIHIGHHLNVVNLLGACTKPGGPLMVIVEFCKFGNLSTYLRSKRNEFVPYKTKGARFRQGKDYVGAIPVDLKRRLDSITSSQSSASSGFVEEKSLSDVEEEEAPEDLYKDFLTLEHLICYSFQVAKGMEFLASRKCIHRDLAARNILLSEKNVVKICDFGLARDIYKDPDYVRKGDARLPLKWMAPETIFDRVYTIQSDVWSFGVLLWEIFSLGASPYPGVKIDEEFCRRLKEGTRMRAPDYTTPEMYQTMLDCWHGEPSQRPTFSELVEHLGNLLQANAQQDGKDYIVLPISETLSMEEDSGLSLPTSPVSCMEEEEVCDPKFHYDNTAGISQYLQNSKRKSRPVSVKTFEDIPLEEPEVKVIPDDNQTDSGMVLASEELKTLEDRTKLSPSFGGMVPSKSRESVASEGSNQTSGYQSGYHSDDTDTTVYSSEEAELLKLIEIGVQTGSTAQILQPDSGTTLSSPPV

[2] = molecular target: T1, KDR expressed on transiently …; test: competition with 125I-VEGF on KDR-transfected 293H cells (mock subtracted), peptide at 0.3 µM; details: remark: other sources report otherwise

- % inhibition of 125I-labeled VEGF binding [1]: 48%
- % inhibition of 125I-labeled VEGF binding [2]: 24.4%
B1: biotinylated SEQ ID NO:264 with a JJ spacer (peptide)
peptide: Ac-AGPKWCEEDWYYCMITGTGGGK([AEEA-AEEA-Biotin])-NH2
modifications: disulfide 6-13 (inferred)
